Where no end group is shown, it is not given here. [ ]: non-standard residue; d: D form. The star is where a group is joined. pT = C[C@@H](OP(=O)(O)O)[C@H](N)C(=O)O; Butyl(4-Ph) = c1ccc(CCCC*)cc1
Key:
[1] = target: Plk1 polo-box domain (PBD), purified protein of the fluorescence polarization assay; test: fluorescence polarisation
[2] = target: HA-EGFP-Plk1, P53350; test: ELISA; details: remark: other sources report otherwise
Sequence of HA-EGFP-Plk1, P53350 (P53350 whole entry): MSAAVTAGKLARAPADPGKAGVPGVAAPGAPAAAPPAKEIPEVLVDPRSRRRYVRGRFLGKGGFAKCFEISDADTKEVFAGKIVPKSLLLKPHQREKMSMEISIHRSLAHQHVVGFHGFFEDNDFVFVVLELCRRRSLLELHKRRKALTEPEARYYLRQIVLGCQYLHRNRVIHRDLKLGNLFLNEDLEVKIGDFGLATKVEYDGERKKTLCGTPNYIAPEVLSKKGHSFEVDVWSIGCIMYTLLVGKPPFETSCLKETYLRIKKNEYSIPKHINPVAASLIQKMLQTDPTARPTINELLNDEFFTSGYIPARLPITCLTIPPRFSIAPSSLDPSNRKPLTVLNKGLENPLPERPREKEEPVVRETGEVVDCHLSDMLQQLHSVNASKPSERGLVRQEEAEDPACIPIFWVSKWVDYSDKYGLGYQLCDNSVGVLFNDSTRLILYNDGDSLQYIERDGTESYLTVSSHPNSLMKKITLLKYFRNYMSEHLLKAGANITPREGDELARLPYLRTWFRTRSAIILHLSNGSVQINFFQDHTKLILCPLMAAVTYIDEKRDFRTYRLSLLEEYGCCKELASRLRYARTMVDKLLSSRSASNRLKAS

B1: peptide GPMQSpTPLNG-OH (9) (peptide)
peptide: GPMQS[pT]PLNG-OH
modifications: N-terminus assumed
SMILES: CSCC[C@H](NC(=O)[C@@H]1CCCN1C(=O)CN)C(=O)N[C@@H](CCC(N)=O)C(=O)N[C@@H](CO)C(=O)N[C@H](C(=O)N1CCC[C@H]1C(=O)N[C@@H](CC(C)C)C(=O)N[C@@H](CC(N)=O)C(=O)NCC(=O)O)[C@@H](C)OP(=O)(O)O
Binder B1 has an IC50 [1] of 1120 nM.

P(Butyl(4-Ph))LHA[pT] [peptide 7(S4A)] was tested, and the IC50 [1] was 4150 nM and the IC50 [2] was 43000 nM.

P(Butyl(4-Ph))LHS[pT] [peptide 8] gave an IC50 [1] of 38 nM.

Reference: article PMC3355227
